Results from the DeepSol protein solubility set.

Assay: soluble on expression in E. coli; label from the status in PepcDB or PDB records

| Sequence | soluble on expression in E. coli |
| --- | --- |
| MPKLSIIIPAYNNAHLLPETLDSIFSQDCEPFELIVVDDGSTDNTRDVVEGYGRGIVYLWQENSGGCSKPRNVGIRHATGEYIAMFDSDDIMKPGKVRSQMDFLDRNPDVDFVFTDFCDFRGAEVLASHITTCPIFNSLPKQKVGEDAYVISSTAAYETLLVENFIGGSAMMFRKSLFNEAGPFDETLEVSEDIDFTLRVARTHALGFINRIGHHRRLHDGNMTSKAEKILTRSLRVFGGHLSAPKSSKAQQRLIDKVAGLHGALAYHYRENARYGEALAEYRASLSLRPACLGTYKAMAKLAVMALTSGGKLEHHHHHH | soluble |
| MPKVEIAPSEIKIPDNVLKAKLGFGGAEEIPEEFRKTVNRAYEELLDAAKPVVLWRDFEVDGSLSFDDMRLTGELATKHLSGSKIITVFLATLGKKVDEKIEEYFRKGEDLLAFFIDGIASEMVEYALRKVDAELRMKRSNLEGSFRISPGYGDLPLSLNKKIAEIFKEEVDVNVIEDSYVLVPRKTITAFVGWREKNEKQT | not soluble |
| MPLAVLERDGSFLGVLTPHSIVEVLLERERRLLEDARKINAEIRREADKAIEQLDIKAHYDTVTGLPNRQLFCDRLLQALAAHERDGNPVVLLFLDVDNFKSINDSLGHLVGDRLLRATAERIRTAVRDGDTVARIGGDEFTILLNGAKDTLNGALVAQKILDGLAQPFVFGAQQIVISVSIGIAVSPADGETMEQLLRNADTAMYHAKSRGKNNYQFFSPELNVQAYRRQEIERNLRCALLQGELGLRYAPRVDLRSGRIVALEVCPFWLSSELGDVPPDDFIPVAEETGLIVQIGIWAFRTACAHAAVWRTQGLADRCLSFRLSQRELDDPQFGDRIMSLLDGCGLEPENLQFELSERMLMTHAAHTLAVLQELSNRGIRFSVGDFGTGNASLRRLRRFPIDELKIDLSSVRDIEPDSDDAAVITAMIAMAKSLRMDVVAVGVETPEHVAFLLERGCRHGQGRLIGARLPPERIAALLAGDAVDLFVALEHHHHHH | not soluble |
| MPLCLKINKKHGEQTRRILIENNLLNKDYKITSEGNYLYLPIKDVDEDILKSILNIEFELVDKELEEKKIIKKPSFREIISKKYRKEIDEGLISLSYDVVGDLVILQISDEVDEKIRKEIGELAYKLIPCKGVFRRKSEVKGEFRVRELEHLAGENRTLTIHKENGYRLWVDIAKVYFSPRLGGERARIMKKVSLNDVVVDMFAGVGPFSIACKNAKKIYAIDINPHAIELLKKNIKLNKLEHKIIPILSDVREVDVKGNRVIMNLPKFAHKFIDKALDIVEEGGVIHYYTIGKDFDKAIKLFEKKCDCEVLEKRIVKSYAPREYILALDFKINKK | soluble |
| MPLFGSIFSPKKTPPRKSASLSNLHSLDRSTRELELGLDYGTPTMNLAGQSLKFENGQWVADSVISGGVDRRETQRLRKRNQQLEEENNLLRLKVDILLDMLSETTAESHLKDKELDELKVTNRRRK | not soluble |
| MPLNRNHSELRSGKVNLKNGDPFTIALFGVDSDEKRKQQGGGERSDTIMVLSINPKEKKTELVSIPRDTKAEIAGRGTEEKINHAYAYGGPNMAVKTIEKLMNVPIDHYATIDMDGLHDMIDTLGGVDVVSNSTFTMGANHFVKGEKTHVDGDAAMDFIRSRKEDGAGGDFGRQERQQLILEAMADKMTSASSITHFNTLMNQIQKNVKTDLKLGDLNTIRTKYKDANDQVNRHQLEGEGGIQNDGLYYFIPSDASKNENTQLLRDNLNLLEHHHHHH | soluble |
| MPLRVDTLTWLSTQAAPGRVMVWPAVRPGICPGPDVWRIPLGPLPHEFRGWIAPCRPRLGASEAGDWLRRPSEGALPGPYIALRSIPKLPPPEDISGILKELQQLAKELRQKRLSLGYSQADVGIAVGALFGKVLSQTTICRFEAQQLSVANMWKLRPLLKKWLKEVEAENLLGLCKMEMILQQSGKWRRASRERRIGNSLEKFFQRCPKPTPQQISHIAGCLQLQKDVVRVWFYNRSKMGSRPTNDASPREIVGTAGPPCPGAPVCFHLGLGLPVDIPHYTRLYSAGVAHSSAPATTLGLLRF | soluble |
| MPLTFAHSFADAVPSLSVPWRAEQWPDPRIIVFNHELGQELGIDEASLLSNITQQGHAQAYSGHQFGQFNPLLGDGRALVLGDCAQTNAPHGQFEISLKGSGPTPFARRGDGRATLGPMLREYLISEALHGLGIPTTRSLAVITTGTDVQRERLLPGAVVVRVAQNHLRVGSVQCAAMRDDDSLAALVRYALSSHEDGVSDAEAAGLLLRRVSTSQAKLVAQWMRFGFVHGVMNTDNVTLSGQTIDFGPCAFIDSFHPQAVFSSIDSHGRYSFGRQPSIMGWNIARLAEALLPLMSIDEARNIVHEFPDMYRRSWLDEMADAVGISPDDDHAAGVLDDLVALLDVHRPDYAQFMRSLSDGTTVSLFPWAQQWEAEVSSLRVAAPRNPVYVPRNYLVEDALEHAMNADMSVFSLLVEAGKNPYLREKRFEKLENPAPETWQDYVTYCGT | not soluble |
| MPMINALGLLEVDGMVAAIDAADAMLKAANVRLLSHEVLDPGRLTLVVEGDLAACRAALDAGCAAAMRTGRVISRKEIGRPDDDTQWLVTGFNRQPKQPVREPDAPVIVAESADELLALLTSVRQGMTAGEVAAHFGWPLEKARNALEQLFSAGTLRKRSSRYRLKPH | not soluble |
| MPMNNFLDEFNLFDSIITMMKNDPCCVEDYEPIVENLNRIFQRTFNDEEHRKSMANSQLFWERLRDTLEAMLLPASLNENSSIPYTRTVRGLILMMRNLAAENQEIPQKLLLQNLVIRGFLHATSEYVVDTPLIKHLYIACLTCLFNIQQNYSTVDMTTFPALLQFLQYPYGIKLEDGEEEEHFWLPYLFLFKTYLNNDEFSNEFFRDNDTPQKDYYCVRDRIFFDIVTAKFIQDQENSFLIEKGRNYLDDSKLEITSIDLSVLECISKSLTTASFGKYLNGLEERQPGKFTTLLQILQLVVTSKEDWNTYELTAIMSWCYPILQRLACKDIPAFFNKSCNDYAPSVAIQLHSTLLSCLDIISDLCKFNHVRKFLISYDSVKILVSLLDTFQKNLLRINFLKGNGDTVNEIKITDHEGNKIEDRLLIFNRVNTNESFIRADNFPHCKLVIIEILASLVYAHPEIQDQIRELGGLALILSNCVIDDNDPFIKERSIVCLKFLLKNNAKNQEYVKKMEAQDVVQDDALSKAGFEISVEKGGKVRLVSKEEDPGNENSEIISIDED | not soluble |
| MPPKGGGAGSKKQQGGKKCKDDEADFDAQLAKALQEVQVSKDKQGGDANKKAQKGKQRTSKQESNGEANDNNDASDPKVVSTADHPDNPYPQVAEGMKRQTWPEPTIPVSQQFARGNFPVGIICEHPGEVNAYRYSSEEKRAMEHATEEQVQDLRCAAEVHRQVRRYAQSFIKPGISLLSMTDRIEKKLEELIEKDGLNRGQAFPTGCSLNHVAAHYTPNTGDKCVLMYDDVMKVDFGTQINGRIIDCAWTVAFKDEYEPLLTAVKEATYEGVKQAGIDVRLCDVGAAIQEVMESYEVELNGKVYPVKSIRNLSGHTIAPYVIHGGKSVPIVRGGEATRMEEGELFAIETFGSTGRGFVQEDMECSHYMMVPGGEKTQVRSDKAQQLLRHIHKTYNTLAFARKWLDRDGHDRHLLNLNQLVEAGAVNKYPPLCDIRGCYTAQLEHTLILKPTAKEILSKGDDY | soluble |
| MPPKKAPAKKLHELAAEVRVGHKINDISKKTFIVGKQFATGGFGRIHTCTEEGKSQQMVMKIEPSTNGPLLTEVVVFNRILKKELIESYKKKKKISWIGLPYLIANGYFTYESEKMRYMIIPKYATSLEAVRETNGGTLAMKDSLTVASCILDALEYLHESDYAHADVKAANILLEKQGVYSTAVLVDFGLAHRTTNNVDKPDKKRAHNGTCIFTSTDAHRGNNPSFRGDIEILAYNLMMWATGTLPWMALESSPEKVFDAKQKFIAGLPGTLQNVLKNESSAVVGCIASMFDISMKTNYTDKVDMGKLKKLVTDAIQKTSSDGKKTPTRQKKLAEEDKNAVTPKRSTRRLAVKEESDNKDNDEVEVKPEKKATPRKRTTRKAVEVNNDSDDNEEQYENPKSKSSRTQTKSKRAKEEDVDDEEEIIIPKSSRSRSKVQLSGEGSDVTTPSSAASTSRSRSIRLGLTSSTASSNKVAKKIEQKYKRLSMNKSSLVPVTISVASDKSPTTSTPSSSSGLRSKRKSSEDVGEGITLKTQVLITPAIKKAKTKSGISSATKASPTELRRVPGVRNFPKGRRSMIIKETSAKYKERLASRQTKPTFDDSSCSSEV | not soluble |
| MPPKKDPKGGKAPPSKKKEGSGGGKAKKKKWSKGKVRDKLNNMVLFDQATYDKLYKEVITYKLITPSVVSERLKVRASLAKAGLKELQAKGLVKCVVHHHGQVVYTRATKEADVIVE | soluble |
